Test results from patent publication US20250277030A1, “ANTI-NAPI2B ANTIBODIES AND METHODS OF USE” (Zymeworks BC Inc., priority 2022, published 2025).

Biological target: Insulin (Sigma-Aldrich, 19278) (UniProt P01308)
Test: non-specific binding ELISA, insulin coated at 5 µg/mL, antibody at 100 nM

Sequence of Insulin (Sigma-Aldrich, 19278) (P01308 25-54 limits assumed, chain 1 of 2): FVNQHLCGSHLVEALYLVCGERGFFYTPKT
Sequence of Insulin (Sigma-Aldrich, 19278) (P01308 90-110 limits assumed, chain 2 of 2): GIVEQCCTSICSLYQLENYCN

B1: v29452 humanized anti-NaPi2b antibody (H1L3) (antibody, human IgG1, kappa, V domains shown)
VH: QVQLVQSGAEVKKPGASVKVSCKASGFTFTSYNVHWVRQAPGQGLEWMGAISPGNGDLSYAQKFQGRVTMTRDTSTSTVYMELSSLRSEDTAVYYCARGRTGMGAVDYWGQGTLVTVSS
VL: DVQMTQSPSSLSASVGDRVTITCRASQDVYSYLNWYQQKPGKAVKLLIYYTSRLQSGVPSRFSGSGSGTDYTLTISSLQPEDIATYYCQQYNIFPWTFGQGTKLEIKR
With B1 as the binder, how does the NS-ELISA binding score (ratio of signal between antibody-treated and untreated) read?
Its NS-ELISA binding score (ratio of signal between antibody-treated and untreated) is 1.03.
